# Data taken from patent US20080260748A1.
# B1: anti-DSC2 human antibody 332 (antibody, V domains shown)
# VH: QVQLQQWGAGLLKPSETLSLTCAVYGGSFSGNYWSWIRQPPGKGLEWIGEINHSGNTKYNPSLKSRVAISADTSKNQFSLKLSSVTAADTAVYYCARVPFDWFHPPGEPPFYYYYGMDVWGQGTTVTVSS
# VL: HVILTQPPSVSGAPGQRVTISCTGSSSNIGAGYDVHWYQQLPGTAPKLLIYGNSNRPSGVPDRFSGSKSGTSASLAITGLQAEDEADYYCQSYDSSLSGWVFGGGTKLTVPG
# Biological target: desmocollin 2 (DSC2) (human) (UniProt Q02487)
# Experiment: flow cytometry on NCI-H358 cells, control human IgG
binder,measurement,value
B1,MFI (ratio of intensity to control IgG),9.48
